Experimental findings from article PMC5333631 (Scientific Reports, 2017) are described below.

For the test, the target named is 6xHis-TrxA-BoNT/A2-HC (UniProt Q45894 871-1296). The test is described as follows: pull-down. Particulars: both partners purified.
6xHis-TrxA-BoNT/A2-HC, sequence (Q45894 871-1296): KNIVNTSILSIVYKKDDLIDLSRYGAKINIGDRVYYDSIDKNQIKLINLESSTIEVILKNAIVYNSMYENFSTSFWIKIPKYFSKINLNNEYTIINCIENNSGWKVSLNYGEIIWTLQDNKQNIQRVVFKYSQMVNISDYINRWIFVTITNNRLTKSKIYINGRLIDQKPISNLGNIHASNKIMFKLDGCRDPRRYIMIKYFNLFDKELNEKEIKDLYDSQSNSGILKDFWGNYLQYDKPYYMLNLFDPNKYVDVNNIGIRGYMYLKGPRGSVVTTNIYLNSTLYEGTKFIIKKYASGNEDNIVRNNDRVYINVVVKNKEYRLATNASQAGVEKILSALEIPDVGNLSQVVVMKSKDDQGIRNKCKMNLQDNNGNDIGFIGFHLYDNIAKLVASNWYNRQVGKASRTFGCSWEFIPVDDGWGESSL

B1: luminal domain (LD) of human SV2C (domain or fragment, UniProt Q496J9 456-574, looked up)
chain: DVIKPLQSDEYALLTRNVERDKYANFTINFTMENQIHTGMEYDNGRFIGVKFKSVTFKDSVFKSCTFEDVTSVNTYFKNCTFIDTVFDNTDFEPYKFIDSEFKNCSFFHNKTGCQITFD
notes: also called SV2C-LD; untagged SV2C-LD; not shown: 6xHis, N-terminal, cleaved
As for B1, the binding result is listed as “binds”.
